Patent US20260103513A1 (HEFEI TG IMMUNOPHARMA, published 2026)

T1: TIGIT protein overexpressed on cells (Homo sapiens (Human), UniProt Q495A1 22-244)
T1 construct: also called CHO-K1-TIGIT
T1 sequence: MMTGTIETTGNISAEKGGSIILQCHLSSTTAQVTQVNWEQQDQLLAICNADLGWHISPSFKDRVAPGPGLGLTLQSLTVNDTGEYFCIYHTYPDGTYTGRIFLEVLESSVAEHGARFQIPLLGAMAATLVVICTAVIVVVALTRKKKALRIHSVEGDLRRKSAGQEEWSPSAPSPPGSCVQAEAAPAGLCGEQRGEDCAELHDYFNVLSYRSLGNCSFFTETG

T2: Human TIGIT-His tag fusion protein (human, UniProt Q495A1 22-141)
T2 construct: extracellular domain; Bought (Acro); also called TIGIT extracellular domain-His tag fusion protein; TIGIT protein; not shown: His tag
T2 sequence (looked up): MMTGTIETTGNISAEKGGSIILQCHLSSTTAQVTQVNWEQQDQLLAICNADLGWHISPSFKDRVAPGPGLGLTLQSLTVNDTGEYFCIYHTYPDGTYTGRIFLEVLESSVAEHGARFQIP


Tests used:
[1] = molecular target: T3, Cynomolgus monkey TIGIT-His tag fusion protein (cynomolgus monkey, UniProt A0A7N9I9V4 89-209); assay: ELISA, cynomolgus TIGIT-His coated, HRP anti-human IgG, OD450
T3 construct: extracellular domain; Bought (Acro); also called TIGIT extracellular domain-His tag fusion protein; TIGIT protein; not shown: His tag

[2] = molecular target: T1, TIGIT protein overexpressed on cells; assay: flow cytometry on 293T-TIGIT cells, Alexa-647 anti-human Fc, MFI
[3] = molecular target: T2, Human TIGIT-His tag fusion protein; assay: competition ELISA on coated TIGIT-His; blocked ligand CD155-Biotin; the sheet does not name the species of the TIGIT-His
[4] = molecular target: T1, TIGIT protein overexpressed on cells; assay: flow cytometry competition on 293T-TIGIT cells; blocked ligand CD155-mIgG2a-Fc, APC anti-mouse IgG2a, MFI
[5] = molecular target: T2, Human TIGIT-His tag fusion protein; assay: ELISA, human TIGIT-His coated, HRP anti-human IgG, OD450
[6] = molecular target: T4, recombinant TIGIT extracellular domain-Fc fusion protein; assay: SPR, Biacore T200, TIGIT-Fc amine-coupled on CM5, antibody injected, 1:1 Langmuir model
T4 construct: Covalently coupled to the CM5 chip in the Biacore assay; also called TIGIT-Fc
Procedure: The Biacore method is a well-established objective assay for detecting the affinity and kinetics between proteins. The TIGIT antibody of the present disclosure was analyzed using Biacore T200 to characterize its affinity and binding kinetics.
The TIGIT extracellular domain-Fc fusion protein (TIGIT-Fc) was covalently attached to a CM5 (GE) chip using a standard amino coupling method. A series of TIGIT antibodies diluted in PBS buffer at a concentration gradient was then injected in cycles, followed by regeneration with 10 mM NaOH solution. The antigen-antibody binding kinetics were monitored for 3 minutes, followed by dissociation kinetics for 10 minutes. The resulting data were analyzed using GE's BIAevaluation software in a 1:1 (Langmuir) binding model.

[7] = molecular target: T1, TIGIT protein overexpressed on cells; assay: flow cytometry on CHO-K1-TIGIT cells, binding percentage (%)
[8] = molecular target: T1, TIGIT protein overexpressed on cells; assay: flow cytometry competition on CHO-K1-TIGIT cells; blocked ligand CD155-mIgG2a-Fc, binding percentage (%)

Row | Binder | EC50 (read off the curve) [1] | EC50 (read off the curve) [2] | IC50 (read off the curve) [3] | IC50 (read off the curve) [4] | EC50 (read off the curve) [5] | Kd [6] | koff [6] | kon [6] | EC50 (read off the curve) [7] | IC50 (read off the curve) [8]
1 | H401LV2-hIgG1 (antibody, Wild-type human IgG1 constant region, human kappa light chain (H401LV2-hK); also called TIGIT antibody H401LV2) heavy: not shown light: DIVMTQSPSSMSTSVGDRVTITCRASQDVFNQVAWYQQKPGKSPKLLIYSASFRYTGVPDRFSGSGSGTDFTFTISSVQAEDFATYYCQQHYSTPLTFGAGTKLELKRTVAAPSVFIFPPSDEQLKSGTASVVCLLNNFYPREAKVQWKVDNALQSGNSQESVTEQDSKDSTYSLSSTLTLSKADYEKHKVYACEVTHQGLSSPVTKSFNRGEC | ~0.02 µg/mL | ~0.4 µg/mL | ~0.8 µg/mL | ~0.5 µg/mL | ~0.04 µg/mL | – | – | – | – | –
2 | H401LV2-hIgG4S228P (antibody, also called TIGIT antibody H401LV2) heavy: not shown light: DIVMTQSPSSMSTSVGDRVTITCRASQDVFNQVAWYQQKPGKSPKLLIYSASFRYTGVPDRFSGSGSGTDFTFTISSVQAEDFATYYCQQHYSTPLTFGAGTKLELKRTVAAPSVFIFPPSDEQLKSGTASVVCLLNNFYPREAKVQWKVDNALQSGNSQESVTEQDSKDSTYSLSSTLTLSKADYEKHKVYACEVTHQGLSSPVTKSFNRGEC | ~0.02 µg/mL | – | ~0.8 µg/mL | ~0.5 µg/mL | ~0.04 µg/mL | – | – | – | – | –
3 | H401LV2-hIgG1LALA (antibody, also called TIGIT antibody H401LV2) heavy: not shown light: DIVMTQSPSSMSTSVGDRVTITCRASQDVFNQVAWYQQKPGKSPKLLIYSASFRYTGVPDRFSGSGSGTDFTFTISSVQAEDFATYYCQQHYSTPLTFGAGTKLELKRTVAAPSVFIFPPSDEQLKSGTASVVCLLNNFYPREAKVQWKVDNALQSGNSQESVTEQDSKDSTYSLSSTLTLSKADYEKHKVYACEVTHQGLSSPVTKSFNRGEC | ~0.02 µg/mL | ~0.6 µg/mL | ~0.8 µg/mL | ~0.5 µg/mL | ~0.04 µg/mL | – | – | – | – | –
4 | Hu4A501 (antibody, V domains shown, also called parental antibody Hu4A501; parent antibody Hu4A501) VH: QVQLQESGPGLVKPSQTLSLTCTVTGSSITSDYAWNWIRQFPGKKLEWMGYITYSGRTTYNPSLKSRITISRDTSKNQFSLKLSSVTAADTATYYCARWGLLRRYFDYWGQGTLLTVSS VL: DIVMTQSPSSMSTSVGDRVTITCRASQDVFTAVAWYQQKPGKSPKLLIYSASFRYTGVPDRFSGSGSGTDFTFTISSVQAEDFATYYCQQHYSTPLTFGAGTKLELKR | ~0.04 µg/mL | – | ~0.8 µg/mL | – | – | 5.06 nM | 0.000501 s⁻¹ | 98900 M⁻¹ s⁻¹ | – | –
5 | H401LV2-mIgG2a (antibody, Mouse IgG2a constant region, mouse kappa light chain (H401LV2-mK); also called TIGIT antibody H401LV2-mIgG2a) heavy: QVQLQESGPGLVKPSQTLSLTCTVTGSSITSDYAWNWIRQFPGKKLEWMGYITYSGRTTYNPSLKSRITISRDTSKNQFSLKLSSVTAADTATYYCARWGLLRRYFDYWGQGTLLTVSSAKTTAPSVYPLAPVCGDTTGSSVTLGCLVKGYFPEPVTLTWNSGSLSSGVHTFPAVLQSDLYTLSSSVTVTSSTWPSQSITCNVAHPASSTKVDKKIEPRGPTIKPCPPCKCPAPNLLGGPSVFIFPPKIKDVLMISLSPIVTCVVVDVSEDDPDVQISWFVNNVEVHTAQTQTHREDYNSTLRVVSALPIQHQDWMSGKEFKCKVNNKDLPAPIERTISKPKGSVRAPQVYVLPPPEEEMTKKQVTLTCMVTDFMPEDIYVEWTNNGKTELNYKNTEPVLDSDGSYFMYSKLRVEKKNWVERNSYSCSVVHEGLHNHHTTKSFSRTPGK light: DIVMTQSPSSMSTSVGDRVTITCRASQDVFNQVAWYQQKPGKSPKLLIYSASFRYTGVPDRFSGSGSGTDFTFTISSVQAEDFATYYCQQHYSTPLTFGAGTKLELKRADAAPTVSIFPPSSEQLTSGGASVVCFLNNFYPKDINVKWKIDGSERQNGVLNSWTDQDSKDSTYSMSSTLTLTKDEYERHNSYTCEATHKTSTSPIVKSFNRNEC | – | – | – | – | – | – | – | – | ~0.05 µg/mL | ~0.2 µg/mL
6 | 22G2 (antibody, mouse IgG2a, kappa, V domains shown, Comparator, mouse IgG2a heavy and mouse kappa light constant regions; the printed heavy chain reads VVVAVSE (as in the D265A form) although it is named only mIgG2a; also called 22G2-mIgG2a; 22G2 antibody) VH: QVQLQESGPGLVKPSETLSLTCTVSGGSVSSGIYYWSWIRQPPGKGLEWIGYIYYSGSTNYNPSLKSRVTISVDTSKNQFSLKLSSVTAADTAVYYCARDYYVSGNYYNVDYYFFGVDVWGQGTTVTVSS VL: EIVLTQSPATLSLSPGERATLSCRASQSVSSYLAWYQQKPGQAPRLLIYDASNRATGIPARFSGSGSGTDFTLTISSLEPEDFAVYYCQQRSNWPPLFTFGPGTKVDIKR | – | – | – | – | – | – | – | – | ~0.2 µg/mL | ~0.2 µg/mL
7 | 4.1D3 (antibody, mouse IgG2a, kappa, V domains shown, Comparator, made with mouse IgG2a heavy and mouse kappa light constant regions; also called 4.1D3-mIgG2a; 4.1D3 antibody) VH: EVQLQQSGPGLVKPSQTLSLTCAISGDSVSSNSAAWNWIRQSPSRGLEWLGKTYYRFKWYSDYAVSVKGRITINPDTSKNQFSLQLNSVTPEDTAVFYCTRESTTYDLLAGPFDYWGQGTLVTVSS VL: not shown | – | – | – | – | – | – | – | – | ~0.1 µg/mL | ~0.3 µg/mL
8 | H401LV2 (antibody, V domains shown, also called matured TIGIT antibody H401LV2) VH: QVQLQESGPGLVKPSQTLSLTCTVTGSSITSDYAWNWIRQFPGKKLEWMGYITYSGRTTYNPSLKSRITISRDTSKNQFSLKLSSVTAADTATYYCARWGLLRRYFDYWGQGTLLTVSS VL: DIVMTQSPSSMSTSVGDRVTITCRASQDVFNQVAWYQQKPGKSPKLLIYSASFRYTGVPDRFSGSGSGTDFTFTISSVQAEDFATYYCQQHYSTPLTFGAGTKLELK | – | – | – | – | – | ≤ 0.00508 nM | ≤ 1e-06 s⁻¹ | 197000 M⁻¹ s⁻¹ | – | –
